The values below come from US20240398911A1.

Holding throughout (test): BLI, sACE22-IgG1 immobilized, RBD-8h analyte
A general note: BLI is a label-free optical method that tracks binding on a fibre tip over time.

In test [1] the target is 8his-tagged RBD of the S protein of bat coronavirus isolate LYRa11 (bat coronavirus LYRa11).
Test [2] deals with 8his-tagged RBD of the S protein of bat coronavirus isolate Rs4084 (bat coronavirus Rs4084).
In test [3] the target is 8his-tagged RBD of the S protein of bat coronavirus isolate Rs4231 (bat coronavirus Rs4231).
Test [4] concerns the target 8his-tagged RBD of the S protein of bat coronavirus isolate Rs7327 (bat coronavirus Rs7327).
Test [5] has as its target 8his-tagged RBD of the S protein of bat coronavirus isolate RsSHC014 (bat coronavirus RsSHC014).

What is called Kd is a measure of binding affinity in units of concentration. Low readings indicate a tighter complex, high ones a looser complex. A word on the koff: it is the rate constant with which the complex falls apart. Higher therefore signals a short-lived complex. Usually kon stands for the second-order rate constant of association. Turning to “sACE22.v2.4 fused to human IgG1 Fc (Fc fusion)”, the Kd is 1.8 nM in test [1]; 3.1 nM in test [2]; 3.5 nM in test [3]; 1.9 nM in test [4]; 1.3 nM in test [5]. The off-rate constant (koff) in test [1] was 0.0025 s⁻¹; in test [2], 0.0015 s⁻¹; in test [3], 0.0016 s⁻¹; in test [4], 0.0018 s⁻¹; in test [5] it was 0.002 s⁻¹. Further, the kon in test [1] is 1.4e+06 M⁻¹ s⁻¹; in test [2] it was 480000 M⁻¹ s⁻¹; in test [3], 450000 M⁻¹ s⁻¹; in test [4] it was 980000 M⁻¹ s⁻¹; in test [5] it was 1.6e+06 M⁻¹ s⁻¹.
